Source: patent US20110256557A1, “IDENTIFYING PARATHYROID HORMONE AGONISTS AND ANTAGONISTS” (DISCOVERYBIOMED, INC., priority 2008, published 2011)

T1: LRP6-PTH1R complex (Rattus norvegicus, UniProt P25961)
T1 construct: endogenous LRP6 and endogenous PTH1R in UMR-106 cells; endogenous in cells; host or cells: UMR-106
T1 sequence (P25961 27-591): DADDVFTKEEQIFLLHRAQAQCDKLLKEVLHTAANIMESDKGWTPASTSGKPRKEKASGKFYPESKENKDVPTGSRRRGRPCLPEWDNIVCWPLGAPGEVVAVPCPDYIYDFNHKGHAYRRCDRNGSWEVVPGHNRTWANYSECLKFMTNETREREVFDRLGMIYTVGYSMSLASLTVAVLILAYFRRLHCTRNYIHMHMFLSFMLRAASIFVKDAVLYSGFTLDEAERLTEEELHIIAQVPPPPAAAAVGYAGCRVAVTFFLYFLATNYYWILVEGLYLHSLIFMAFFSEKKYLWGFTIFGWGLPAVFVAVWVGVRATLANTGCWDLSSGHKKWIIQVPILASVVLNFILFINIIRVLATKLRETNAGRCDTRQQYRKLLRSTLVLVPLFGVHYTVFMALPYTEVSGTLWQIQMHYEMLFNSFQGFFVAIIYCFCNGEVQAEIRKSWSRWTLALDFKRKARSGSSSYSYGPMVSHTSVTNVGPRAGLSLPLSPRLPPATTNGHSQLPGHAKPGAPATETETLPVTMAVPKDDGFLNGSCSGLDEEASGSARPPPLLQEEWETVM


Tests used:
[1] = tested on: TCF/LEF luciferase reporter; test: High-throughput screen validation, TCF/LEF luciferase reporter in osteosarcoma cell line; format: cell-based; details: 96-well plate
Protocol: Osteosarcoma cells were plated in a 96 well plate. The cells were transiently transfected with the TCF/LEF luciferase reporter using LipofectAMINE PLUS (Invitrogen; Carlsbad, Calif.). The cells were incubated overnight at 37° C. in OptiMEM-1 serum-free medium with the transfection reagents. The cells were washed and serum-containing medium was added to the cells for 8 hours. The serum-containing medium was replaced with serum-free medium and the cells were stimulated overnight with PTH and WNT3a. Supernatant from the stimulated cells was collected for detection of osteosclerostin, and the cells were subjected to a luciferase assay as previously described (Wan et al., Am. J. Pathol. 166:1379-92 (2005)).
To determine agonists and antagonists of the additive signaling of the PTH receptor and the WNT receptor, (as well as any co-receptors) in bone cells, a high-throughput screen is designed. […] An osteosarcoma cell line is transiently transfected with a TCF/LEF luciferase reporter. The cells are treated with WNT3a and PTH and luciferase activity is determined (FIG. 46).

LRP6 = LRP6 phosphorylation at PPPSP motifs, western blotting with Ab1490, UMR-106 cells; format: cell-based, rat; details: endogenous LRP6; cells not given
Protocol: (§1) Cells were harvested in cavitation buffer (5 mM HEPES, pH 7.4, 3 mM MgCl2, 1 mM EGTA, 250 mM sucrose) containing protease and phosphatase inhibitors and homogenized by nitrogen cavitation (200 p.s.i., for 5 minutes) in a cell disruption bomb (Parr Instrument Co.; Moline, Ill.). The cell homogenate was centrifuged twice at 700 g for 10 minutes to pellet the nuclei. The supernatant was further centrifuged at 100,000 g (Beckman SW50.1 rotor) for 1 hour to separate the membrane and cytosol fractions, and the resulting membrane pellet was washed three times with cavitation buffer before use in the assays (Zhang et al., Biochem. J. 343:541-9 (1999)). Immunoprecipitation and Western blot analysis of cell lysates were performed as described previously (Wan et al., Am. J. Pathol. 166:1379-92 (2005)).
As phosphorylation of LRP6 at the PPPSP motifs plays a crucial role in activating downstream β-catenin signaling by Wnt, whether PTH induces phosphorylation of LRP6 at PPPSP motifs (Mao et al., Mol. Cell. 7:801-9 (2001); Tamai et al., Mol. Cell. 13:149-56 (2004); Davidson et al., Nature 438:867-72 (2005); Zeng et al., Nature 438:873-7 (2005)). Immunoprecipitated LRP6 from extracts of PTH-treated UMR-106 cells were monitored for their phosphorylation, by western blotting, with an antibody that recognizes phosphorylated PPPSP motifs (Ab1490) (Tamai et al., Mol. Cell. 13:149-56 (2004)). […] Phosphorylation of PPPSP motifs is required for axin recruitment from cytoplasm to LRP6 at cell membrane. […] Fz8CRD, a competitive inhibitor of the Wnt receptor Fz (Hsieh et al., Proc. Natl. Acad. Sci. USA 96:3546-55 (1999)), was used to exclude the possibility that these PTH effects are mediated through promotion of Wnts production or sensitization of Wnt-stimulated signaling. […] In contrast, LRP6N blocked PTH-stimulated LRP6 phosphorylation (FIG. 33).

LRP6-PTH1R complex = molecular target: T1, LRP6-PTH1R complex; test: Co-immunoprecipitation of endogenous LRP6 and PTH1R in UMR-106 cells; format: cell-based
Protocol: as §1

[2] = tested on: luciferase reporter bearing TCF/LEF binding elements; test: TCF/LEF luciferase reporter assay in UMR-106 cells; format: cell-based, rat; details: UMR-106 cells treated with PTH
Text: HEK293, UMR-106 and mouse embryonic fibroblast (MEF) cells were maintained in Dulbecco's Modified Eagle Medium (DMEM) with 10% Fetal Calf Serum (FCS). Mouse Wnt3a conditioned medium (Wnt3a CM) was produced from mouse L cells stably transfected with mouse Wnt3a (American Type Culture Collection; Manassas, Va.) and control conditioned medium (Control CM) was from non-transfected L cells. IgG, LRP6N-IgG, DKK1, Sclerostin, VSVG-LRP6N and Myc-Fz8CRD conditioned media were produced from HEK 293 cells transfected with the individual plasmids. Transfections were carried out using lipofectamine reagent (Invitrogen; Carlsbad, Calif.). Luciferase assays were carried out in either UMR-106 or HEK 293 cells as described previously (Wan et al., Am. J. Pathol. 166:1379-92 (2005)), with 0.3 μg of TCF-Luc reporter plasmid plus 50 ng of Renilla luciferase plasmid (internal control) per well in the 12-well plate. Experiments were repeated at least three times with triplicate for each experiment.

Molecule | stimulation of the TCF/LEF luciferase reporter, treatment alone [1] | effect on PTH-stimulated LRP6 phosphorylation (LRP6) | effect on PTH-induced association of endogenous LRP6 with PTH1R (LRP6-PTH1R complex) | effect on PTH-stimulated TCF/LEF luciferase (transcriptional) activity [2]
WNT3a | stimulates |  |  | 
LRP6N: soluble N-terminal (extracellular) domain of LRP6; acts as a dominant-negative in PTH signaling (protein, left off: a dimerising Fc or GST, soluble N-terminal (extracellular) domain of LRP6; acts as a dominant-negative in PTH signaling) APLLLYANRRDLRLVDATNGKENATIVVGGLEDAAAVDFVFSHGLIYWSDVSEEAIKRTEFNKTESVQNVVVSGLLSPDGLACDWLGEKLYWTDSETNRIEVSNLDGSLRKVLFWQELDQPRAIALDPSSGFMYWTDWGEVPKIERAGMDGSSRFIIINSEIYWPNGLTLDYEEQKLYWADAKLNFIHKSNLDGTNRQAVVKGSLPHPFALTLFEDILYWTDWSTHSILACNKYTGEGLREIHSDIFSPMDIHAFSQQRQPNATNPCGIDNGGCSHLCLMSPVKPFYQCACPTGVKLLENGKTCKDGATELLLLARRTDLRRISLDTPDFTDIVLQLEDIRHAIAIDYDPVEGYIYWTDDEVRAIRRSFIDGSGSQFVVTAQIAHPDGIAVDWVARNLYWTDTGTDRIEVTRLNGTMRKILISEDLEEPRAIVLDPMVGYMYWTDWGEIPKIERAALDGSDRVVLVNTSLGWPNGLALDYDEGKIYWGDAKTDKIEVMNTDGTGRRVLVEDKIPHIFGFTLLGDYVYWTDWQRRSIERVHKRSAEREVIIDQLPDLMGLKATNVHRVIGSNPCAEENGGCSHLCLYRPQGLRCACPIGFELISDMKTCIVPEAFLLFSRRADIRRISLETNNNNVAIPLTGVKEASALDFDVTDNRIYWTDISLKTISRAFMNGSALEHVVEFGLDYPEGMAVDWLGKNLYWADTGTNRIEVSKLDGQHRQVLVWKDLDSPRALALDPAEGFMYWTEWGGKPKIDRAAMDGSERTTLVPNVGRANGLTIDYAKRRLYWTDLDTNLIESSNMLGLNREVIADDLPHPFGLTQYQDYIYWTDWSRRSIERANKTSGQNRTIIQGHLDYVMDILVFHSSRQSGWNECASSNGHCSHLCLAVPVGGFVCGCPAHYSLNADNRTCSAPTTFLLFSQKSAINRMVIDEQQSPDIILPIHSLRNVRAIDYDPLDKQLYWIDSRQNMIRKAQEDGSQGFTVVVSSVPSQNLEIQPYDLSIDIYSRYIYWTCEATNVINVTRLDGRSVGVVLKGEQDRPRAVVVNPEKGYMYFTNLQERSPKIERAALDGTEREVLFFSGLSKPIALALDSRLGKLFWADSDLRRIESSDLSGANRIVLEDSNILQPVGLTVFENWLYWIDKQQQMIEKIDMTGREGRTKVQARIAQLSDIHAVKELNLQEYRQHPCAQDNGGCSHICLVKGDGTTRCSCPMHLVLLQDELSCGEPPTCSPQQFTCFTGEIDCIPVAWRCDGFTECEDHSDELNCPVCSESQFQCASGQCIDGALRCNGDANCQDKSDEKNCEVLCLIDQFRCANGQCIGKHKKCDHNVDCSDKSDELDCYPTEEPAPQA |  | blocked | blocked | inhibited
